{
  "source": "patent US20230348572A1",
  "about": "(ROSALIND FRANKLIN INSTITUTE, published 2023)",
  "binders": {"B1": {"name": "NbRBD_H11 (VHH)", "VHH": "QVQLVESGGGLMQAGGSLRLSCAVSGRTFSTAAMGWFRQAPGKEREFVAAIRWSGGSAYYADSVKGRFTISRDKAKNTVYLQMNSLKYEDTAVYYCAQTRVTRSLLSDYATWPYDYWGQGTQVTVSS", "notes": "also called nanobody H11; Nb H11"}, "B2": {"name": "NbRBD_H11-H4 (VHH)", "VHH": "B1 VHH with R100H, V101Y, T102V, R103S, S104Y", "notes": "also called nanobody H11-H4"}, "B3": {"name": "NbRBD_H11-D4 (VHH)", "VHH": "B1 VHH with Q98R, R100E, V101N, T102V", "notes": "also called nanobody H11-D4"}, "B4": {"name": "NbRBD_A7 (VHH)", "VHH": "QVQLVESGGGLVQPGGSLRLSCAASGFTFDDYAMSWVRQAPGKGLEWVSAISWNGGGTYYAESMKGRFTISRDNAKNTLYLQMNSLKSEDTAVYYCAKDFHRYGSSTLEYDYWGQGTQVTVSS"}, "B5": {"name": "NbRBD_F9 (VHH)", "VHH": "QVQLVESGGGLVQPGGSLRVSCAASGFTFSSYFMSWVRQAPGKQRELVATIGDRGNTNYADSVKGRFTISRDNAKNTVYLQMNSLKPEDTAVYYCYSRNRILQHYWGQGTQVTVSS"}, "B6": {"name": "NbRBD_C10 (VHH)", "VHH": "QVQLVESGGGLVQPGGSLRLSCAASGFAFSSYDMSWVRQAPGKGLEWVSAIDSGGGVTYYADSMKGRFTISRDNAKNTVYLQMNSLKPEDTAVYYCNAVDGLGYLEYDYWGQGTQVTVSS"}, "B7": {"name": "NbRBD_B11 (VHH)", "VHH": "QVQLVESGGGLVQPGGSLRLSCAASGFTFDDYAMSWVRQAPGKGLEWVSNIYSYISTTHYADSVKGRFTISTDNAKNTLYLQMNSLKPEDTAVYYCAARRLDTTDYKYWGQGTQVTVSS"}, "B8": {"name": "NbRDB_E11 (VHH)", "VHH": "QVQLVESGGGLVQPGGSLRLSCAASGFTFSNYAMTWVRQAPGKGLEWISDIGSDGRHPAYADSVKGRYTISRDNAKNTLYLQMNSLKPEDTAMYYCLPGWSTVGTFLDAWGQGTQVTVSS"}, "B9": {"name": "NbRBD_D1 (VHH)", "VHH": "QVQLVESGGGLVQPGGSLRLSCAASGFTFSSYGMSWVRQAPGKGLEWVSGINSGGGSTSYADSVKGRFTISRDNAKNTLYLQMNSLKSEDTAVYYCAKDASEDAGRLYWTDYWGQGTQVTVSS"}, "B10": {"name": "NbRBD_G7 (VHH)", "VHH": "QVQLVESGGGLVQPGGSLRLSCATSGFTFDTYDMSWVRQAPGNGPEWVSAEDSTGNKFYADSVKGRFAISRDNARNTLYLQMNSLTSEDTAVYYCAKGLRSWGAWGQGTQVTVSS"}, "B11": {"name": "NbRBD_F5 (VHH)", "VHH": "QVQLVESGGGLVQAGGSLRLSCAASGTIFRINAMAWYRQAPGKQRELVAIISNGDSGDSTNYADSVKGRFTISRDSAKNTVYLQMNSLKPEDTAVYYCNVEASWPHKYWGQGTQVTVSS"}, "B12": {"name": "NbRBD_G11 (VHH)", "VHH": "QVHLVESGGGLVQPGGSLRLSCAASGFTFDDYGMTWVRQAPGKGLEWVSAVNSGGGTSYADSVKGRFTISRDNAKNTLYLQMNSLKPEDTAVYYCAKRDGSWWGYTTDYWGKGTQVTVSS"}, "B13": {"name": "NbRBD_B4 (VHH)", "VHH": "QVQLVESGGGLVQPGGSLRLSCAASGFTFSSYWMYWVRQAPGKGLEWVSVINTGGDTTYYADSVKGRFTISRDNDENTLSLQMNSLKPEDTALYYCARTGVVRGPGDLDAWGQGTQVTVSS"}, "B14": {"name": "NbRBD_G9 (VHH)", "VHH": "QVQLVESGGGLVQPGGSLRLSCAASGFTFYDYHMSWVRQAPGKGLEWVSGIDTGGGRTYAADSVKGRFTISRDNAKNTLYLQMNSLKSEDTALYYCVRDGDARGPDYDYWGQGTMVTVSS"}, "B15": {"name": "NbRBD_C7 (VHH)", "VHH": "QVQLVESGGGLVQPGGSLRLSCAASGFTFSSYDMSWVRQAPGKGLEWVSGISGSDSTTVYSDSVKDRFTISRDNAKNTLYLQMNKLKPEDTALYYCARPLGQYTSWGQGTQVTVSS"}},
  "key": {"[1]": {"molecular_target": "T1, SARS-CoV-2 Spike receptor binding domain (RBD, amino acids 330-532) (SARS-CoV-2, UniProt P0DTC2 330-532)", "T1 construct": "range 330-532", "assay": "phage ELISA on biotinylated RBD captured on neutravidin, anti-M13-HRP"}, "RBD-Fc [2]": {"molecular_target": "T2, RBD-Fc (SARS-CoV-2; human, UniProt P0DTC2 330-532)"}, "RBD-Fc [3]": {"molecular_target": "T2, RBD-Fc", "remark": "listed apart in the source"}, "[4]": {"molecular_target": "T1, SARS-CoV-2 Spike receptor binding …", "assay": "ITC, RBD in the cell, H11-H4 in the syringe"}, "[5]": {"molecular_target": "T1, SARS-CoV-2 Spike receptor binding …"}, "[6]": {"molecular_target": "T1, SARS-CoV-2 Spike receptor binding …", "assay": "ITC, nanobody titrated into RBD, 25 °C, 1:1 stoichiometry"}, "RBD-Fc [7]": {"molecular_target": "T2, RBD-Fc", "remark": "listed apart in the source"}, "RBD-Fc [8]": {"molecular_target": "T2, RBD-Fc", "assay": "SPR single-cycle kinetics, RBD-Fc on Protein A chip, nanobody as analyte"}, "RBD-Fc [9]": {"molecular_target": "T2, RBD-Fc", "assay": "SPR, single-cycle kinetics, RBD-Fc immobilized, H11-D4 as analyte, run i)"}, "RBD-Fc [10]": {"molecular_target": "T2, RBD-Fc", "assay": "SPR, single-cycle kinetics, RBD-Fc immobilized, H11-D4 as analyte, run ii)"}, "[11]": {"molecular_target": "T1, SARS-CoV-2 Spike receptor binding …", "remark": "listed apart in the source"}},
  "note": "Positions count from the first letter of the chain named. Like-named read-outs stand apart in the source and are kept apart here.",
  "data": [
    {"binder": "B1", "values": [
      {"measurement": "ELISA A405", "setting": "[1]", "result": "> 1.5"},
      {"measurement": "Kd", "setting": "RBD-Fc [2]", "result": "< 1000", "unit": "nM"},
      {"measurement": "Kd", "setting": "RBD-Fc [3]", "result": 378, "unit": "nM"}
    ]},
    {"binder": "B2", "values": [
      {"measurement": "ΔH", "setting": "[4]", "result": -67, "unit": "kJmol-1"},
      {"measurement": "ΔS", "setting": "[4]", "result": -80, "unit": "Jmol-1K-1"},
      {"measurement": "Kd", "setting": "[5]", "result": 11.8, "unit": "nM"},
      {"measurement": "ΔH", "setting": "[5]", "result": -69, "unit": "kJmol-1"},
      {"measurement": "ΔS", "setting": "[5]", "result": -79, "unit": "Jmol-1K-1"},
      {"measurement": "Kd", "setting": "[6]", "result": 12, "unit": "nM"},
      {"measurement": "Kd", "setting": "RBD-Fc [7]", "result": 5.5, "unit": "nM"},
      {"measurement": "Kd", "setting": "RBD-Fc [8]", "result": "~5", "unit": "nM"}
    ]},
    {"binder": "B3", "values": [
      {"measurement": "Kd", "setting": "RBD-Fc [9]", "result": 9, "unit": "nM"},
      {"measurement": "Kd", "setting": "[6]", "result": 39, "unit": "nM"},
      {"measurement": "Kd", "setting": "RBD-Fc [10]", "result": 10, "unit": "nM"},
      {"measurement": "Kd", "setting": "[11]", "result": 39.2, "unit": "nM"},
      {"measurement": "ΔH", "setting": "[11]", "result": -76.1, "unit": "kJmol-1"},
      {"measurement": "ΔS", "setting": "[11]", "result": -114, "unit": "Jmol-1K-1"},
      {"measurement": "Kd", "setting": "RBD-Fc [8]", "result": "~10", "unit": "nM"}
    ]},
    {"binder": "B4", "values": [
      {"measurement": "ELISA A405", "setting": "[1]", "result": "> 1.5"}
    ]},
    {"binder": "B5", "values": [
      {"measurement": "ELISA A405", "setting": "[1]", "result": "> 1.5"}
    ]},
    {"binder": "B6", "values": [
      {"measurement": "ELISA A405", "setting": "[1]", "result": "> 1.5"}
    ]},
    {"binder": "B7", "values": [
      {"measurement": "ELISA A405", "setting": "[1]", "result": "> 1.5"}
    ]},
    {"binder": "B8", "values": [
      {"measurement": "ELISA A405", "setting": "[1]", "result": "> 1.5"}
    ]},
    {"binder": "B9", "values": [
      {"measurement": "ELISA A405", "setting": "[1]", "result": "> 1.5"}
    ]},
    {"binder": "B10", "values": [
      {"measurement": "ELISA A405", "setting": "[1]", "result": "> 1.5"}
    ]},
    {"binder": "B11", "values": [
      {"measurement": "ELISA A405", "setting": "[1]", "result": "> 1.5"}
    ]},
    {"binder": "B12", "values": [
      {"measurement": "ELISA A405", "setting": "[1]", "result": "> 1.5"}
    ]},
    {"binder": "B13", "values": [
      {"measurement": "ELISA A405", "setting": "[1]", "result": "> 1.5"}
    ]},
    {"binder": "B14", "values": [
      {"measurement": "ELISA A405", "setting": "[1]", "result": "> 1.5"}
    ]},
    {"binder": "B15", "values": [
      {"measurement": "ELISA A405", "setting": "[1]", "result": "> 1.5"}
    ]}
  ]
}
